The conditions of this data set: Escherichia coli (strain K12), 25 °C, GdnHCl, CD, reversible: yes, whole UniProt chain shown.

B1: Tryptophan synthase alpha chain wild type, P0A877 (protein)
chain: MERYESLFAQLKERKEGAFVPFVTLGDPGIEQSLKIIDTLIEAGADALELGIPFSDPLADGPTIQNATLRAFAAGVTPAQCFEMLALIRQKHPTIPIGLLMYANLVFNKGIDEFYAQCEKVGVDSVLVADVPVEESAPFRQAALRHNVAPIFICPPNADDDLLRQIASYGRGYTYLLSRAGVTGAENRAALPLNHLVAKLKEYNAAPPLQGFGISAPDQVKAAIDAGAAGAISGSAIVKIIEQHINEPEKMLAALKVFVQPMKAATRS
On to B1, for which the unfolding free energy runs as follows: (pH 5.5, acetate 0.05 M) 5.2 kcal/mol; (pH 7, Potassium phosphate 0.01 M) 8.8 kcal/mol; (pH 9, Tris-HCl 0.025 M) 4.9 kcal/mol.

The record behind these values is FireProtDB (doi:10.1016/0022-2836(82)90184-x).
